Measured values reported in PMC7601328.

Biological target: RNA polymerase holoenzyme (beta, beta', alpha, omega, sigma) (Escherichia coli) (UniProt P0A8V2+P0A8T7+P0A7Z4+P0A800+P00579)
Test: EMSA
Settings: 40 mM Hepes-KOH pH 8, 50 mM KCl, 10 mM Mg acetate, 0.5 mM DTT, 0.005% NP40, 50 uM ATP, 30 C; ~0.3 pmol DNA and 7 pmol RNAP in 200 uL; time course, heparin …

GTGCTGCGAAATCATCGGTGTAAATAGGGCTATATGCCGCGTCTTTTCTGGCTAATTTTATGAAAAGATATTTATTGGCGGCACAAAATAAAGAACAATTTTGAATTCCTTACATTCCTGGCTATTGCACAACTGAATTTAAGGCTCTATTATTACCTCAACAAACCACCCCAATATAAGTTTGAGATTACTACAATGAGCGAAGCACTTAAAATTCTGAA (double strand) [hns promoter fragment, 221 bp (-159 to +62)]
binding: binds
